This experiment concerns the target F-actin (polymerized non-muscle actin) (UniProt P60709). The experiment in a line: co-sedimentation; as the F-actin co-sedimentation, with in vitro synthesized HA-RAB-10(Q68L) (control: HA-only) added to the mixture.

This passage reports increase of co-sedimentation with HA-RAB-10(Q68L) against without results from publication PMC4894640.

Regarding “GST-EHBP-1(260-901aa) (domain or fragment)”, the increase of co-sedimentation with HA-RAB-10(Q68L) against without amounted to 67%.
